Reference: patent publication US20210170043A1, “DC-SIGN ANTIBODY CONJUGATES COMPRISING STING AGONISTS” (NOVARTIS AG, priority 2018, published 2021)

T1: human DC-SIGN (Homo sapiens, UniProt Q9NNX6)
T1 construct: expressed in transfected cells
T1 sequence (Q9NNX6 1-404): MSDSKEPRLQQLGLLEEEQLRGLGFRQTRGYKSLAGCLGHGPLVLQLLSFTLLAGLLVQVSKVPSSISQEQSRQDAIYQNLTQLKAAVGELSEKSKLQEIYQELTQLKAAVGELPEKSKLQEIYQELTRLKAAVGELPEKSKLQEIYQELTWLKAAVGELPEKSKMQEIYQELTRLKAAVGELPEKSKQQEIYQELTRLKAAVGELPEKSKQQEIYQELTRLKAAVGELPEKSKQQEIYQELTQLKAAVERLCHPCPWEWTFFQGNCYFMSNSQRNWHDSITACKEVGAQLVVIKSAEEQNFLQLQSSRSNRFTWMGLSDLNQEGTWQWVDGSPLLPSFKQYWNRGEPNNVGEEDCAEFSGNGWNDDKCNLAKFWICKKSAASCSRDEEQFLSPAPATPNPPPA

T2: human L-SIGN (Homo sapiens, UniProt Q9H2X3)
T2 construct: expressed in transfected cells; host or cells: K562, retroviral transduction
T2 sequence (Q9H2X3 1-399): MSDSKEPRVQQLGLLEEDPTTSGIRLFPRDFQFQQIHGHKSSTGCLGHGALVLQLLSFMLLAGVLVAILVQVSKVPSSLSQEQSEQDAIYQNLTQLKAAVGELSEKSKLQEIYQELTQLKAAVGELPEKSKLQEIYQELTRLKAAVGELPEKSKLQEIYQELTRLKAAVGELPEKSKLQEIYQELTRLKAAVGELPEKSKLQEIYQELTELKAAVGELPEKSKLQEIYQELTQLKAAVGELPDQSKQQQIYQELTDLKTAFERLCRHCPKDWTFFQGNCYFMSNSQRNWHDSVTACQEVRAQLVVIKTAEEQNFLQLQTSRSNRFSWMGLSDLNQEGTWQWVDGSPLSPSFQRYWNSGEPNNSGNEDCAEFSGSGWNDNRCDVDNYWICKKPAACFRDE

B1: 958N05 S93A: optimization of sequences by removal of post-translational modifications, non-preferred sites; substitutions made by site directed mutagenesis (antibody)
heavy: QVTLRESGPALVKPTQTLTLTCTFSGFSLSTSGISVSWIRQPPGKALEWLALIDWDDDKYYSTSLKTRLTISKDTSKNQVVLTMTNMDPVDTATYYCARTPSGSYGRYFDLWGRGTLVTVSSASTKGPSVFPLAPSSKSTSGGTAALGCLVKDYFPCPVTVSWNSGALTSGVHTFPAVLQSSGLYSLSSVVTVPSSSLGTQTYICNVNHKPSNTKVDKRVEPKSCDKTHTCPPCPAPELLGGPSVFLFPPKPKDTLMISRTPEVTCVVVAVSHEDPEVKFNWYVDGVEVHNAKTKPREEQYNSTYRVVSVLTVLHQDWLNGKEYKCKVSNKALAAPIEKTISKAKGQPREPQVYTLPPSREEMTKNQVSLTCLVKGFYPCDIAVEWESNGQPENNYKTTPPVLDSDGSFFLYSKLTVDKSRWQQGNVFSCSVMHEALHNHYTQKSLSLSPGK
light: DIQLTQSPSTLSASVGDRVTITCRASQSISNWLAWYQQKPGKAPKLLIYKASSLESGVPSRFTGSGSGTEFTLTISSLQPDDFATYYCQQYNAYWTFGQGTKVEIKRTVAAPSVFIFPPSDEQLKSGTASVVCLLNNFYPREAKVQWKVDNALQSGNSQESVTEQDSKDSTYSLSSTLTLSKADYEKHKVYACEVTHQGLSSPVTKSFNRGEC
B2: 960K03 N92Q: optimization of sequences by removal of post-translational modifications, non-preferred sites; substitutions made by site directed mutagenesis (antibody)
heavy: QVTLRESGPALVKPTQTLTLTCTFSGFSLSTGGMSVSWIRQPPGKALEWLALIDWDDDKYYSTSLKTRLTISKDTSKNQLVLTMTNMDPVDTATYYCARAHSGSYFDFWGQGTLVTVSSASTKGPSVFPLAPSSKSTSGGTAALGCLVKDYFPCPVTVSWNSGALTSGVHTFPAVLQSSGLYSLSSVVTVPSSSLGTQTYICNVNHKPSNTKVDKRVEPKSCDKTHTCPPCPAPELLGGPSVFLFPPKPKDTLMISRTPEVTCVVVAVSHEDPEVKFNWYVDGVEVHNAKTKPREEQYNSTYRVVSVLTVLHQDWLNGKEYKCKVSNKALAAPIEKTISKAKGQPREPQVYTLPPSREEMTKNQVSLTCLVKGFYPCDIAVEWESNGQPENNYKTTPPVLDSDGSFFLYSKLTVDKSRWQQGNVFSCSVMHEALHNHYTQKSLSLSPGK
light: DIQMTQSPSTLSASVGDRVTITCRASQRISNWLAWYQQKPGKAPKLLIYKASSLESGVPSRFSGSGSGTEFTLTISSLQPDDFATYYCQQFQSYWTFGQGTKVEIKRTVAAPSVFIFPPSDEQLKSGTASVVCLLNNFYPREAKVQWKVDNALQSGNSQESVTEQDSKDSTYSLSSTLTLSKADYEKHKVYACEVTHQGLSSPVTKSFNRGEC
B3: 2B2 (DAPA) DAR2 C1 (conjugate)
VH: QVQLVQSGAEVKKPGASVKVSCKASGYTFTNYGINWVRQAPGQRLEWMGYIYIGNDYTEYNERFKGRVTITSDTSASTAYMELSSLRSEDTAVYYCARLYYGSSLYSYAMDYWGQGTTVTVSS
VL: DIVMTQSPLSLPVTPGEPASISCRSSKSLLHSSGNTYLYWFLQKPGQSPQLLISRMSNLASGVPDRFSGSGSGTDFTLKISRVEAEDVGVYYCMQHLEYPYTFGGGTKVEIK

What was measured:
human DC-SIGN [1] = biological target: T1, human DC-SIGN; test: FACS binding to K562 cells expressing human DC-SIGN; conditions: FACS MFI
Protocol: (§1) The affinity of various antibodies and ADCs to DC-SIGN and its species orthologues was determined using FACS. Purified IgGs were titrated to determine EC50 values for binding to cell surface expressed DC-SIGN.
(§2) For this purpose, human DC-SIGN expressing or cynomolgus monkey DC-SIGN expressing stable CHO cell lines or K562 expressing DC-SIGN or K562 expressing L-SIGN cell lines were checked for density and viability using VICELL (Beckman Coulter), and washed once with 4° C. PBS. Cells were stained with DAPI (0.5 ug/mL) diluted in PBS for 30 min on ice. Cells were diluted into 4° C. FACS buffer (PBS, 10 mM EDTA, 2% FBS). 125 μl of cells were seeded (10,000 cells/well) into 96-well v-bottom plates (Nunc cat#442587) and centrifuged for 4 min at 1500 rpm at 4° C. Supernatant was removed. Cells were incubated with a serial dilution of each anti-DC-SIGN antibody in FACS buffer at concentrations ranging across several logs with a top concentration no higher than 50 μg/mL for 60 minutes at 4° C. Following incubation, cells were spun down (1500 rpm, 4 min, 4° C.) and washed two times with FACS buffer. A fluorophore-conjugated anti-hFc gamma-AF-647 (Southern Biotechnology) detection antibody was added at 1:400 and samples were incubated for 1 h on ice in the dark. Following incubation, FACS buffer was added, and the cells were spun down (1500 rpm, 4 min, 4° C.) and washed two times with FACS buffer. After the final wash, cells were resuspended in Fixative Buffer (Biolegend, 420801) and 90 μl of FACS buffer followed by readout on the flow cytometry machine (BD LSRFortessa Cell Analyzer; Cat #647177). Geometric Mean fluorescence intensity (MFI) of live, single cells was calculated in Flowjo 10.4.2 and exported into Graphpad Prism7 for EC50 determination.

human DC-SIGN [2] = biological target: T1, human DC-SIGN; test: FACS binding to CHO cells stably expressing human DC-SIGN; conditions: FACS MFI, average
Protocol: as §1, §2

[3] = test system: cynomolgus monkey DC-SIGN; test: FACS binding to CHO cells stably expressing cynomolgus monkey DC-SIGN; conditions: FACS MFI, average
Chain of cynomolgus monkey DC-SIGN (as listed by the source): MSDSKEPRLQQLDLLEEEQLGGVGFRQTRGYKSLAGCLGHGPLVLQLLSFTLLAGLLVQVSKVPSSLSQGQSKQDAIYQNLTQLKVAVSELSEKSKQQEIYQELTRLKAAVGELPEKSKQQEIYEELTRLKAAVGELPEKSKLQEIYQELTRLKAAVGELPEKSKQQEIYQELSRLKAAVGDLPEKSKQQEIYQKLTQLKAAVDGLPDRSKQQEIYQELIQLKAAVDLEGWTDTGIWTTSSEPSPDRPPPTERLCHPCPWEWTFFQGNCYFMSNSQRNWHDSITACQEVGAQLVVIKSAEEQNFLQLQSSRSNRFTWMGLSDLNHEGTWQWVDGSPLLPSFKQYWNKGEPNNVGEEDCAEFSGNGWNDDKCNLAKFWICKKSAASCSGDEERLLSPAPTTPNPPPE
Protocol: as §1, §2
In a similar experiment the antibodies were tested for cross-reactivity using engineered isogenic matched cell line.

human L-SIGN = biological target: T2, human L-SIGN; test: FACS binding to K562 cells expressing human L-SIGN (selectivity); conditions: FACS MFI
Protocol: as §1, §2
Selectivity was assessed by measuring apparent binding affinities to isogenic cell pairs engineered to overexpress DC-SIGN as well as cell lines expressing DC-SIGN paralog L-SIGN.

[4] = test system: transgenic mice expressing human DC-SIGN gene (Tg+); test: Plasma cytokine production in transgenic mice expressing human DC-SIGN (ELISA / MesoScaleDiscovery); format: in vivo, mouse
Protocol: FIGS. 5A-5E show exemplary data on DC-SIGN immunoconjugates inducing cytokine production in Tg+ mice. […] Plasma levels were analyzed by ELISA (IP-10 and IFNβ) or MesoScaleDiscovery Multiplex analysis (all other analytes). **** denotes p value of <0.0001 using an ANOVA with Tukey's test compared to Tg-2B2 hlgG1 DAPA C1 group.
Mice were bled 6 hours after dosing to collect plasma for analysis of circulating cytokine levels.

[5] = test system: CD11c+ dendritic cells of Tg+ mice; test: Dendritic cell activation in DC-SIGN Tg+ mice (spleen, flow cytometry); format: in vivo, mouse
Protocol: Spleens were harvested 24 hours post dose and analyzed by flow cytometry to look at CD11c+ dendritic cells.

Molecule | human DC-SIGN K562 EC50 (human DC-SIGN [1]) [mg/L] | human DC-SIGN CHO EC50 (ug/mL) ave. (human DC-SIGN [2]) [µg/mL] | cyno DC-SIGN CHO EC50 (ug/mL) ave. [3] [µg/mL] | human L-SIGN K562 EC50 (human L-SIGN) [mg/L] | circulating plasma IL-12p70 [4] | circulating plasma IP-10 [4] | CD86 upregulation on dendritic cells (DC activation) [5]
B1 | 0.060 | 0.13 | 0.16 | >10 |  |  | 
B2 | 0.021 | 0.08 | 0.04 | >10 |  |  | 
B3 |  |  |  |  | induced | induced | induced DC activation
